Reference: US20260152559A1 (Janssen / Centocor, published 2026)

Tests used:
[1] = target: human CD3 on cells (Jurkat cells, primary human T cells) (human) (UniProt P07766); assay: flow cytometry, 10 nM antibody on Jurkat cells; no-antibody background 2075.61
[2] = target: hK2 on target cells (VCaP, LNCaP/hK2 and other hK2 positive tumor cells) (human, UniProt P20151 19-261); assay: cell-based or functional assay
[3] = target: T1, kallikrein related peptidase 2 (hK2), soluble (human, UniProt P20151 19-261, biotin label in the CAR staining assays (site not stated)); assay: SPR; bispecific antibody captured on anti-Fc sensor chip, soluble hK2 injected; 1:1 Langmuir fit
T1 construct: also called KLK2; human KLK2 protein
T1 sequence (P20151 19-261): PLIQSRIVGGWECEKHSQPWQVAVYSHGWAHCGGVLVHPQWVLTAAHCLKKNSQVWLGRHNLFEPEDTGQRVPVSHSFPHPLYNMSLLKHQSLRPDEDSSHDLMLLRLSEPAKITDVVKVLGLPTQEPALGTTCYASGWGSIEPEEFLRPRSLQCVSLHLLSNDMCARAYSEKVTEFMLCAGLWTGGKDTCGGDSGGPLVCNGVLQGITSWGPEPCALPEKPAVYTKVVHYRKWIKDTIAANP

Sequence of hK2 on target cells (VCaP, LNCaP/hK2 and other hK2 positive tumor cells) (P20151 19-261): as above
Sequence of human CD3 on cells (Jurkat cells, primary human T cells) (human) (P07766 23-207 limits assumed): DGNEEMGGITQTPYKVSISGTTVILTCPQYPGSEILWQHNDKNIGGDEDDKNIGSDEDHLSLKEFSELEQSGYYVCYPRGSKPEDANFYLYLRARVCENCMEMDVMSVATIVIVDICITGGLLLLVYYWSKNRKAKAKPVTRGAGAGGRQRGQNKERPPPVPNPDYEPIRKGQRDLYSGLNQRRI

Molecule: UCHT1 (antibody)
- MFI (mean fluorescence index) (arbitrary units) [1]: 89200

B1: CAR17 (KL2B413_HL) (other)
chain: EVQLVESGGGLVQPGGSLRLSCAASGFTFSSYWMTWVRQAPGKGLEWVANIKQDGSERYYVDSVKGRFTISRDNAKNSLYLQMNSLRAEDTAVYYCARDQNYDILTGHYGMDVWGQGTTVTVSSGGSEGKSSGSGSESKSTGGSEIVLTQSPSFLSASVGDRVTITCRASQGISSYLSWYQQKPGKAPKLLIYATSTLQSGVPSRFSGSGSGTEFTLTISSLQPEDFATYYCQQLNSYPRTFGQGTKVEIKTSTPAPRPPTPAPTIASQPLSLRPEACRPAAGGAVHTRGLDFACDIYIWAPLAGTCGVLLLSLVITLYCKRGRKKLLYIFKQPFMRPVQTTQEEDGCSCRFPEEEEGGCELRVKFSRSADAPAYKQGQNQLYNELNLGRREEYDVLDKRRGRDPEMGGKPRRKNPQEGLYNELQKDKMAEAYSEIGMKGERRRGKGHDGLYQGLSTATKDTYDALHMQALPPR
- tumor cell growth inhibition (TGI) of VCaP cells, IncuCyte killing assay, 96 hours, E:T 1:1 or 0.5:1 [2]: ~100%

B2: CAR19 (KL2B359_HL) (other)
chain: QVQLQESGPGLVKPSQTLSLTCTVSGNSITSDYAWNWIRQFPGKRLEWIGYISYSGSTTYNPSLKSRVTISRDTSKNQFSLKLSSVTAADTAVYYCATGYYYGSGFWGQGTLVTVSSGGSEGKSSGSGSESKSTGGSEIVLTQSPATLSLSPGERATLSCRASESVEYFGTSLMHWYQQKPGQPPRLLIYAASNVESGIPARFSGSGSGTDFTLTISSVEPEDFAVYFCQQTRKVPYTFGGGTKVEIKTSTPAPRPPTPAPTIASQPLSLRPEACRPAAGGAVHTRGLDFACDIYIWAPLAGTCGVLLLSLVITLYCKRGRKKLLYIFKQPFMRPVQTTQEEDGCSCRFPEEEEGGCELRVKFSRSADAPAYKQGQNQLYNELNLGRREEYDVLDKRRGRDPEMGGKPRRKNPQEGLYNELQKDKMAEAYSEIGMKGERRRGKGHDGLYQGLSTATKDTYDALHMQALPPR
- tumor cell growth inhibition (TGI) of VCaP cells, IncuCyte killing assay, 96 hours, E:T 1:1 or 0.5:1 [2]: ~100%

B3: KL2B30 Fab arm of an hK2/CD3 bispecific antibody (Table 39) (bispecific antibody)
chain 1: QVQLQESGPGLVKPSETLSLTCTVSGGSISSYYWSWIRQPPGKGLEWIGYIYYSGSTNYNPSLKSRVTISVDTSKNQFSLKLSSVTAADTAVYYCAGTTIFGVVTPNFYYGMDVWGQGTTVTVSSASTKGPSVFPLAPSSKSTSGGTAALGCLVKDYFPEPVTVSWNSGALTSGVHTFPAVLQSSGLYSLSSVVTVPSSSLGTQTYICNVNHKPSNTKVDKKVEPKSCDKTHTCPPCPAPEAAGGPSVFLFPPKPKDTLMISRTPEVTCVVVSVSHEDPEVKFNWYVDGVEVHNAKTKPREEQYNSTYRVVSVLTVLHQDWLNGKEYKCKVSNKALPAPIEKTISKAKGQPREPQVYVLPPSREEMTKNQVSLLCLVKGFYPSDIAVEWESNGQPENNYLTWPPVLDSDGSFFLYSKLTVDKSRWQQGNVFSCSVMHEALHNHYTQKSLSLSPG
chain 2: DIQMTQSPSFLSASVGDRVTITCRASQGISSYLAWYQQKPGKAPKFLIYAASTLQSGVPSRFSGSGSGTEFTLTISSLQPEDFATYYCQQLNSYPLTFGGGTKVEIKRTVAAPSVFIFPPSDEQLKSGTASVVCLLNNFYPREAKVQWKVDNALQSGNSQESVTEQDSKDSTYSLSSTLTLSKADYEKHKVYACEVTHQGLSSPVTKSFNRGEC
chain 3: DIQMTQSPSSLSASVGDRVTITCRARQSIGTAIHWYQQKPGKAPKLLIKYASESISGVPSRFSGSGSGTDFTLTISSLQPEDFATYYCQQSGSWPYTFGQGTKLEIKGGSEGKSSGSGSESKSTGGSEVQLVESGGGLVKPGGSLRLSCAASGFTFSRYNMNWVRQAPGKGLEWVSSISTSSNYIYYADSVKGRFTFSRDNAKNSLDLQMSGLRAEDTAIYYCTRGWGPFDYWGQGTLVTVSSEPKSSDKTHTCPPCPAPEAAGGPSVFLFPPKPKDTLMISRTPEVTCVVVSVSHEDPEVKFNWYVDGVEVHNAKTKPREEQYNSTYRVVSVLTVLHQDWLNGKEYKCKVSNKALPAPIEKTISKAKGQPREPQVYVYPPSREEMTKNQVSLTCLVKGFYPSDIAVEWESNGQPENNYKTTPPVLDSDGSFALVSKLTVDKSRWQQGNVFSCSVMHEALHNHYTQKSLSLSPG
- Kd [3]: 2 nM

B4: KL2B53 Fab arm of an hK2/CD3 bispecific antibody (Table 39) (bispecific antibody)
chain 1: EVQLVESGGGVVQPGRSLRLSCVASGFTFSSYDIHWVRQAPGKGLEWVAIISYDGSKKDYTDSVKGRFTISRDNSKNTLYLQMDSLRVEDSAVYSCARESGWSHYYYYGMDVWGQGTMVTVSSASTKGPSVFPLAPSSKSTSGGTAALGCLVKDYFPEPVTVSWNSGALTSGVHTFPAVLQSSGLYSLSSVVTVPSSSLGTQTYICNVNHKPSNTKVDKKVEPKSCDKTHTCPPCPAPEAAGGPSVFLFPPKPKDTLMISRTPEVTCVVVSVSHEDPEVKFNWYVDGVEVHNAKTKPREEQYNSTYRVVSVLTVLHQDWLNGKEYKCKVSNKALPAPIEKTISKAKGQPREPQVYVLPPSREEMTKNQVSLLCLVKGFYPSDIAVEWESNGQPENNYLTWPPVLDSDGSFFLYSKLTVDKSRWQQGNVFSCSVMHEALHNHYTQKSLSLSPG
chain 2: DIVMTQSPSSLSASVGDRVTITCRASQDISNYLAWYQQKPGKVPKFLIYAASTLHSGVPSRFSGSGSGTDFTLTISSLQPEDVATYYCQKYNSAPYTFGQGTRLEIKRTVAAPSVFIFPPSDEQLKSGTASVVCLLNNFYPREAKVQWKVDNALQSGNSQESVTEQDSKDSTYSLSSTLTLSKADYEKHKVYACEVTHQGLSSPVTKSFNRGEC
chain 3: DIQMTQSPSSLSASVGDRVTITCRARQSIGTAIHWYQQKPGKAPKLLIKYASESISGVPSRFSGSGSGTDFTLTISSLQPEDFATYYCQQSGSWPYTFGQGTKLEIKGGSEGKSSGSGSESKSTGGSEVQLVESGGGLVKPGGSLRLSCAASGFTFSRYNMNWVRQAPGKGLEWVSSISTSSNYIYYADSVKGRFTFSRDNAKNSLDLQMSGLRAEDTAIYYCTRGWGPFDYWGQGTLVTVSSEPKSSDKTHTCPPCPAPEAAGGPSVFLFPPKPKDTLMISRTPEVTCVVVSVSHEDPEVKFNWYVDGVEVHNAKTKPREEQYNSTYRVVSVLTVLHQDWLNGKEYKCKVSNKALPAPIEKTISKAKGQPREPQVYVYPPSREEMTKNQVSLTCLVKGFYPSDIAVEWESNGQPENNYKTTPPVLDSDGSFALVSKLTVDKSRWQQGNVFSCSVMHEALHNHYTQKSLSLSPG
- Kd [3]: 0.1 nM

B5: CAR20 (KL2B359_LH) (other)
chain: EIVLTQSPATLSLSPGERATLSCRASESVEYFGTSLMHWYQQKPGQPPRLLIYAASNVESGIPARFSGSGSGTDFTLTISSVEPEDFAVYFCQQTRKVPYTFGGGTKVEIKGGSEGKSSGSGSESKSTGGSQVQLQESGPGLVKPSQTLSLTCTVSGNSITSDYAWNWIRQFPGKRLEWIGYISYSGSTTYNPSLKSRVTISRDTSKNQFSLKLSSVTAADTAVYYCATGYYYGSGFWGQGTLVTVSSTSTPAPRPPTPAPTIASQPLSLRPEACRPAAGGAVHTRGLDFACDIYIWAPLAGTCGVLLLSLVITLYCKRGRKKLLYIFKQPFMRPVQTTQEEDGCSCRFPEEEEGGCELRVKFSRSADAPAYKQGQNQLYNELNLGRREEYDVLDKRRGRDPEMGGKPRRKNPQEGLYNELQKDKMAEAYSEIGMKGERRRGKGHDGLYQGLSTATKDTYDALHMQALPPR
- tumor cell growth inhibition (TGI) of VCaP cells, IncuCyte killing assay, 96 hours, E:T 1:1 or 0.5:1 [2]: ~100%
